Results published in the supplement of paper PMC9732359.
± gives the uncertainty stated by the source.

Experiment: protein stability index of a GFP-peptide fusion (yeast GPS) (PSI 1-4); higher = more stable; sorted into four equal gates, so the index is relative within each strain
In short: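 The protein stability index of a peptide was calculated by multiplying its read frequency in each gate by that gate's number and adding the products. The peptides were tiled 17-residue stretches of yeast proteins, fused downstream of GFP on a Cherry-expressing plasmid and carried in yeast as a pooled library. Mid-log cultures in leucine-free medium were sorted into four equal gates by GFP/Cherry ratio, and each gate's plasmids were PCR-amplified and Illumina-sequenced.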

Row | Sequence | protein stability index (doa10∆) | protein stability index (pdr5∆) | protein stability index (san1∆) | protein stability index (ubr1∆)
1 | LISNLLFSKNRNEVLES [YCS4] | 1.96 ± 0.062 | 2.68 ± 0.06 | 2.97 ± 0.052 | 2.65 ± 0.056
2 | KMFIQRILAMCVKNHGQ [YCS4] | 1.69 ± 0.062 | 2.1 ± 0.055 | 2.22 ± 0.071 | 1.92 ± 0.057
3 | MSDAVTIRTRKVISNPL [RPS24A] | 2.78 ± 0.23 | 2.69 ± 0.13 | 2.97 ± 0.13 | 2.23 ± 0.14
4 | AADNLGSYGSLLRFNGV [PRE4] | 3.03 ± 0.088 | 3.15 ± 0.078 | 3.25 ± 0.12 | 3.04 ± 0.21
5 | NGMFCQVPSSLIVRAKN [RRP4] | 2.07 ± 0.064 | 2.5 ± 0.12 | 2.31 ± 0.092 | 2.27 ± 0.082
6 | MDRDSESEEAETKDIRK [SRB4] | 3.21 ± 0.17 | 3.13 ± 0.14 | 2.62 ± 0.28 | 2.95 ± 0.16
7 | ILTGTPLQNNLPELWAL [SNF2] | 2.24 ± 0.05 | 2.4 ± 0.044 | 2.15 ± 0.055 | 2.3 ± 0.043
8 | EIKDGRSLFLRNRGKIH [YMR153W/NUP53] | 2.01 ± 0.095 | 2.2 ± 0.068 | 1.54 ± 0.16 | 2.46 ± 0.066
9 | ITKMLASDESLLRYGGA [RPN2] | 3.28 ± 0.11 | 3.41 ± 0.17 | 3.23 ± 0.11 | 3.82 ± 0.22
10 | LDERFASRVALNKEKLG [IRR1] | 1.27 ± 0.057 | 1.52 ± 0.1 | 1.57 ± 0.18 | 1.55 ± 0.087
11 | LSYISALGMMTRISSQF [RET1] | 1.41 ± 0.063 | 1.34 ± 0.057 | 1.43 ± 0.16 | 1.14 ± 0.054
12 | GNVLLNATVVDSFKYEP [YLR335W/NUP2] | 2.92 ± 0.074 | 3.02 ± 0.1 | 3.05 ± 0.081 | 2.62 ± 0.17
13 | SVTRAGNIISSDKTIVP [SIN4] | 3.01 ± 0.12 | 2.88 ± 0.099 | 2.97 ± 0.12 | 3.1 ± 0.068
14 | EQLSPQDVLQMLGRAGR [BRR2] | 3.14 ± 0.27 | 3.17 ± 0.18 | 3.48 ± 0.15 | 3.36 ± 0.12
15 | YIFFGPIYYQKLKHMVL [RET1] | 1.2 ± 0.062 | 1.38 ± 0.1 | 1.28 ± 0.12 | 1.39 ± 0.062
16 | KGSRFISTLQVKLYGRE [RPB2] | 2.06 ± 0.065 | 2.3 ± 0.057 | 2.58 ± 0.089 | 2.37 ± 0.056
17 | IQWYKSLLEKDIDAVNG [ISW2] | 2.73 ± 0.085 | 3.02 ± 0.075 | 2.81 ± 0.2 | 2.82 ± 0.055
18 | YASYFPYLLETYANVLI [RPN7] | 1.57 ± 0.088 | 1.43 ± 0.062 | 1.18 ± 0.096 | 1.08 ± 0.043
19 | LRLFINEEGDWSCIVVE [ITC1] | 2.74 ± 0.088 | 2.62 ± 0.083 | 3.07 ± 0.083 | 3.19 ± 0.1
20 | SNTRTMTYKNKLTVCFD [MED2] | 2.51 ± 0.073 | 2.53 ± 0.11 | 1.46 ± 0.24 | 1.35 ± 0.056
21 | NISTNTNIHEPQYINYS [SSN2] | 3.17 ± 0.067 | 2.98 ± 0.078 | 2.74 ± 0.069 | 2.97 ± 0.078
22 | IQKQIETIQADLNHVTE [SMC2] | 2.96 ± 0.047 | 3.16 ± 0.053 | 2.96 ± 0.037 | 2.87 ± 0.039
23 | IPQDFENEVSDIDVTIV [ESC2] | 2.96 ± 0.096 | 2.34 ± 0.092 | 2.77 ± 0.11 | 2.42 ± 0.054
24 | PSTKVASSAVMNRRKIA [YLR335W/NUP2] | 1.41 ± 0.071 | 1.77 ± 0.062 | 2.14 ± 0.12 | 2.38 ± 0.073
25 | IYAKQQEQLKQMDQQLQ [ARP7] | 1.76 ± 0.066 | 2.05 ± 0.079 | 2.2 ± 0.1 | 2.7 ± 0.072
26 | LKTRDWIVVLPWFWLLP [POP1] | 1.51 ± 0.12 | – | 1.5 ± 0.23 | 2.02 ± 0.1
27 | HTQANEPNSAKKIRFLQ [RGR1] | 2.98 ± 0.24 | 3.51 ± 0.11 | 3.12 ± 0.22 | 3.33 ± 0.18

Row | Sequence | protein stability index (doa10∆) | protein stability index (pdr5∆) | protein stability index (san1∆) | protein stability index (ubr1∆)
28 | SGHDDLVHDVVYDFYGR [YGL100W/SEH1] | 2.49 ± 0.068 | 2.75 ± 0.067 | 2.39 ± 0.089 | 2.5 ± 0.065
29 | NVDGNIKIVYALTTIKG [RPS18A] | – | 1.49 ± 0.18 | – | 1.23 ± 0.11
30 | NSNTTNQNSSTGAGAFG [YJL041W/NSP1] | 3.04 ± 0.053 | 3.07 ± 0.074 | 3.03 ± 0.051 | 2.96 ± 0.05
31 | AILQKSLKNVTEKNREI [YIL149C/MLP2] | 3.01 ± 0.051 | 2.79 ± 0.064 | 3.05 ± 0.032 | 2.96 ± 0.036
32 | RFRKAQCPIIERLTNSL [RPS5] | 2.32 ± 0.2 | 2.82 ± 0.26 | – | 2.07 ± 0.21
33 | LLEFFELVFSKGVYLIL [YML103C/NUP188] | 2.13 ± 0.087 | 2.4 ± 0.093 | 1.97 ± 0.093 | 2.26 ± 0.076
34 | NMTTIADRNDDDEGSFA [SRB6] | 3.72 ± 0.17 | 3.4 ± 0.3 | 3.33 ± 0.094 | 3.44 ± 0.079
35 | ESVIEQIVKYARKGLTP [RPS13] | 3.13 ± 0.058 | 2.94 ± 0.073 | 2.76 ± 0.052 | 2.81 ± 0.044
36 | GIKYHATPPLKRFKDME [SMC1] | 3.1 ± 0.1 | 3.25 ± 0.075 | 2.95 ± 0.07 | 3.25 ± 0.076
37 | AIRKNGQIDFWYQFSNS [SIN4] | 2.09 ± 0.087 | 2.08 ± 0.08 | 1.77 ± 0.082 | 2.52 ± 0.056
38 | DESTIKRIKPNTEITQK [ECM29] | 2.88 ± 0.051 | 2.96 ± 0.053 | 2.95 ± 0.046 | 2.91 ± 0.044
39 | IDVMKSQIIPLMKKACY [SNU114] | 2.23 ± 0.094 | 2 ± 0.051 | 2.77 ± 0.047 | 2.08 ± 0.05
40 | EVFSRPEWMILTCLPVP [RPO21] | 1.42 ± 0.12 | 1.48 ± 0.12 | 1.51 ± 0.14 | 1.67 ± 0.063
41 | RKANREEKLKANKEKKR [RPL24B] | 2.86 ± 0.074 | 1.96 ± 0.065 | 2.12 ± 0.087 | 2.27 ± 0.053
42 | LWNLNAYRTDVIQALGG [PRP8] | 2.17 ± 0.055 | 2.16 ± 0.05 | 1.88 ± 0.088 | 1.93 ± 0.041
43 | NYHPNASITPYKLVNKN [RPN4] | 1.84 ± 0.063 | 2.38 ± 0.078 | 2.59 ± 0.083 | 2.05 ± 0.068
44 | RIFKITEKLSPLASEES [YGL100W/SEH1] | 2.82 ± 0.056 | 2.5 ± 0.055 | 2.41 ± 0.066 | 2.57 ± 0.032
45 | SLLLAHFFSKSCSFFAK [NUT1] | 1.83 ± 0.057 | 1.62 ± 0.043 | 1.61 ± 0.074 | 1.68 ± 0.039
46 | NVRALYMRLWEINETEF [RMP1] | 3 ± 0.24 | – | – | –
47 | TKDIFPLQNIHVRKVKL [RPS1A] | 2.4 ± 0.084 | 2.81 ± 0.097 | 2.6 ± 0.072 | 2.84 ± 0.09
48 | LCVLWDDLQSSVIPEVD [YCG1] | 1.88 ± 0.095 | 1.87 ± 0.068 | 2.01 ± 0.087 | 2.34 ± 0.075
49 | FKKLNSKNMSKSPSLTA [YMR153W/NUP53] | 2.21 ± 0.065 | 2.38 ± 0.048 | 2.19 ± 0.067 | 2.13 ± 0.071
50 | TPPAIEHKPVSPDKIGT [SSN2] | 3.03 ± 0.072 | 3.35 ± 0.066 | 3.12 ± 0.076 | 3.17 ± 0.06
51 | MTTTIGSPQMLANEERL [RGR1] | – | – | – | 2.63 ± 0.25
52 | FTITVARKYLQTRWGLP [FAS2] | 1.44 ± 0.092 | 1.29 ± 0.1 | 1.36 ± 0.21 | 1.96 ± 0.29
53 | DFDDSTAQEINFKMLVL [IRR1] | 2.59 ± 0.064 | 2.66 ± 0.053 | 2.67 ± 0.058 | 2.9 ± 0.054
54 | SNPQHIIQPFLDNSKMD [RGR1] | 2.91 ± 0.062 | 2.98 ± 0.075 | 2.53 ± 0.077 | 2.86 ± 0.034
